In this test the test system is H1299 cells. Description: MTT cell viability, H1299. To be noted: AChE-ID media, 48 h, H1299; Fig. 7B. Format: cell-based, human. The protocol:
Human NSCLC cell lines, A549 (ATCC CCL‐185) and H1299 (ATCC CRL‐5803), were purchased from the American Type Culture Collection (ATCC, Manassas, VA, USA). Cells were seeded as we reported earlier in 5 mL HyClone Dulbecco's modified Eagle's medium/nutrient mixture F‐12 (DMEM/F12) (GE Healthcare Life Sciences, Pittsburgh, PA, USA), supplemented with 10% Fetalgro bovine growth serum (FBS; RMBIO, Missoula, MT, USA), 50 U·mL^−1 penicillin, and […] streptomycin (Invitrogen, Life Technologies, Carlsbad, CA, USA) in 25‐cm^2 tissue culture flasks, and allowed to grow overnight in an incubator at 37 °C, 95% humidity, and 5% CO2. The cells were counted after trypan blue staining, with a hemocytometer.
The 3‐(4,5‐dimethylthiazol‐2‐yl)‐2,5‐diphenyl‐tetrazolium bromide (MTT) reduction assay (Sigma‐Aldrich), used to measure cell viability, was carried out as we reported earlier. […] The absorbance was measured at 570 nm in a plate reader. […]
Conditioned media were immunodepleted (ID) according to the methods previously described and our recently published report. […] The ID media were then carefully removed and analyzed for the presence of the target protein or peptide by ELISA. The same amount of protein (3 µL of 600 µg·mL^−1 total protein) of each sample was analyzed in the experiments. […]

The results in this text go back to publication PMC7714071, “Interaction of amyloid beta with humanin and acetylcholinesterase is modulated by ATP” (FEBS Open Bio, 2020).

B1: acetylcholinesterase (protein)
chain: EGREDAELLVTVRGGRLRGIRLKTPGGPVSAFLGIPFAEPPMGPRRFLPPEPKQPWSGVVDATTFQSVCYQYVDTLYPGFEGTEMWNPNRELSEDCLYLNVWTPYPRPTSPTPVLVWIYGGGFYSGASSLDVYDGRFLVQAERTVLVSMNYRVGAFGFLALPGSREAPGNVGLLDQRLALQWVQENVAAFGGDPTSVTLFGESAGAASVGMHLLSPPSRGLFHRAVLQSGAPNGPWATVGMGEARRRATQLAHLVGCPPGGTGGNDTELVACLRTRPAQVLVNHEWHVLPQESVFRFSFVPVVDGDFLSDTPEALINAGDFHGLQVLVGVVKDEGSYFLVYGAPGFSKDNESLISRAEFLAGVRVGVPQVSDLAAEAVVLHYTDWLHPEDPARLREALSDVVGDHNVVCPVAQLAGRLAAQGARVYAYVFEHRASTLSWPLWMGVPHGYEIEFIFGIPLDPSRNYTAEEKIFAQRLMRYWANFARTGDPNEPRDPKAPQWPPYTAGAQQYVSLDLRPLEVRRGLRAQACAFWNRFLPKLLSATDTLDEAERQWKAEFHRWSSYMVHWKNQFDHYSKQDRCSDL
For B1, the “effect of AChE immunodepletion on cell viability” value is “no effect”.
